Results: patent US8252303B2, “Injectable depot compositions and uses thereof” (Durect Corporation, priority 2002, dated 2012)

Assay: Preliminary stability of PDGF preformulations in the gel vehicle (SEC and rpHPLC)
Type: physicochemical
Conditions: 5° C. for 1 day, Bulk PDGF as reference
Protocol: All lyophilized protein formulations as listed in Tables 8 and 9, were mixed into a gel vehicle with the composition of PLGA RG502/Benzyl Benzoate (BB)/benzyl alcohol (BA) of 40/45/15 with the loading of the protein formulation about 10 wt %. After being stored at 5° C. for 1 day, the mixtures were extracted with an organic solvent mixture of methylene chloride and acetone (ratio of 50/50) as described in the example 15 above. The purity of the PDGF-BB was analyzed by both reverse phase HPLC (rpHPLC) and size exclusion chromatography (SEC). In general, no distinguishable degradation of the PDGF-BB was found in the PDGF-BB formulation incorporated with the excipients as described in the Example 18 and mixed with the gel vehicle of the present invention.

Bulk PDGF: PDGF-BB bulk solution, i.e., aqueous solution of PDGF in acetate buffer
% PDGF dimmer by SEC (Table 8 (succinate)): 0.73% | % other peaks by rp-HPLC (Table 8 (succinate)): 0.0% | % peak at RRT = 1.10 by rp-HPLC (Table 8 (succinate)): 1.2% | % PDGF dimer by SEC (Table 9 (histidine)): 0.73% | % other peaks by rp-HPLC (Table 9 (histidine)): 0.0% | % peak at RRT = 1.10 by rp-HPLC (Table 9 (histidine)): 1.2%
